Test results reported in the nanobody polyreactivity screen of Harvey et al. (2022).

Assay: yeast display, Sf9 membrane polyspecificity reagent, FACS + sequencing; frameworks hold sequencing errors
In short: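 Genes from sorted yeast were amplified by colony PCR, read by MiSeq 2 × 250 sequencing and filtered on CDR length. These cells carried a synthetic nanobody library in Saccharomyces cerevisiae BJ5465 and were sorted by FACS into low and high (top ~1%) gates on anti-HA and streptavidin fluorescence. Polyreactivity is labelled according to the gate of origin.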

Sequence | polyreactivity (PSR sort gate)
QVHLVDSGGGLVQAGGSLSLSCAPSGTTFHPYAMGCYRHAPGKEREFVATISGSAGSTYYADSVKGRFKISRDNAKNTVYLQMNSLKPEDTAVYYCNADSGWFGYDYWGQGTQVTVSS | low polyreactivity
QVQLVESGGGLVQAGGSLRLSCAASGSIFQYYTMGWYRQAPGKERELVATISRRGGTTYYADSVKGRFTISRDNAKNTVYLQMNILKPEDTAVYYCNADSRTYRYYWSYGYWGQGTQVTVSS | high polyreactivity
QVQLVESGGGLVQPGGSLRLSCAASGSIFYGYTMGWYRQEPGKERELVAAIRKSGGSTNYADSVKWRFTISRDIAKNTVYLQMNSLKPEDTAVYYCAAAYYRGRGYFWGQGTQVTVSS | high polyreactivity
QVQLVESVGGLVQAGGSLRLSCAASGITSYRYTKGWYRQAPGKARELVAAITISGGRTYYGDSVKGRFTISRDNAKNTVYLQLNSLKPEDTAVYYCAAGWRSGFDYWGQGTQVTVSS | high polyreactivity
QVQLVESVGGLVQAGGSLRLSCAASGFTFRVNAMGWYIQAPGKERELVAAISSGGSTNYADTVKGRFTISRDNAKNTVYLQMNSLKPEDTAVYYCAKRFKYIYYWGQGTQVTVSS | high polyreactivity
QVQLVESGGGLVQAGGSLRLSCAASGRTFSGYAMGWYRQAPGKERELVAAITSSGSSTYYADSVKGRFTISRDNAKNTVYLQMNSQKPEDTSVYYCAATPQAHSERYYYQRKYDYWGQGTQVTVSS | low polyreactivity
QVQLGESGGGLVQAGGSLRLSCAASGFTFRIYTMGWYRQAPGKERELVAAISSRGGSTYYADSVKGRFTISRDNAKNTVYLQMNSLKPEDTAVYYCAASGRVYSSGYDYWGQGTQVTVSS | high polyreactivity
QVKLEESGGGLVQAGGSLRLTCAASGRIFYLYGMGWYRQATGKERELVAAIDRRGTRTYYADSVKGRFTISCDNAQTTFYLQMNSVKPEDTAVYYCAARFAAYRTYTSYDYWGQGTQVTVSS | high polyreactivity
QVQLVESGGGLVQAGGSLRISCAASGRIFWANVMGWYRQAPGKERELVAAITGGGRTYYADSVKGRFTISRDNAKNTVYLQMNSLKPEDTAVYYCNAELNWYYYIHLDYWGQGTQVTVSS | low polyreactivity
QVQLVESGGGLVQAGGSLRLSCAASGRIFWDNAMGWYRQAPGKERELVADITWRSDSTYYADSVKGRFTISRDNAKNTVYLQMNSLKPEATAVYYCAKPINIYPYDYWGQGTQVTVSS | low polyreactivity
QVQLVESGGGLVQAGGSLRLSSAASGSTFFLYGMRWYSQPPGKERQLVAAITWNGGSTSYADSVKGRFTISRDIAKFTVYLQMNSLKPEDTAVYYWAADYYGYFSTAYEYWGQGTQVTVSS | low polyreactivity
QVQLVESGGGLVQAGGSLRLSCAASGRTFVGYAMGWYRQAPGKERELVAAIRNGGGTYYADSVKGRFTISRDNAKNTVYLQMNSLKPEDTAVYYCAARLPRSLKVGYYWGQGTQVTVSS | high polyreactivity
HVQLVESGGGLVQAGGSLRLSCAASGRTFSFYVMGWYRQAPGKERELVAAISSSGGRTYYADSVKGRFTISRDNAKNTVYVQMNSLKPEDTAVYYCAVDQPFVSWRLFTQPDSYPRDYWGQGTQVTVSS | low polyreactivity
QVQLVESGGGLVQAGGSLRLSCAASGRIFSSNAMGSYRQAPGKERELVAGISIRGGSTYYADSVKGRFTISRDNAKNTVYLQMNSLKPEDTAVYYCAKDGRRRRTFDYWGQGTQVTVSS | high polyreactivity
QVQLVESGGGLVQAGGSLRLSCAASGSTSETYAMGWYRQAPGKERELVAAISGNGASTYYADSVKGRFTISRDNAKNTVYLQMNSLKPDDTAVYYCAAYFYYWGSTFVRYEYWGQGTQVTVSS | high polyreactivity
QVQLVESGGGLVQAGGSLRLSCAASGFVYYVMGWYRQAPGKERELVAAISKGGGRTYYADSVKGRFTISRDNAKNTVYLQMNSLKPEDTAVYYCNADGGLPKYDYWGQGTQVTVSS | high polyreactivity
QVQLVESGGGLVQAGGSLRLSCAASGSTFDGYAMGWYRQAPGKERELVAAISRSGGRTYYADSVKGRFTISRDNAKNTVYLQMNSLKPEDTAVYYCAALYPYKREDYWGQGTQVTVSS | high polyreactivity
QVQLVESGGGLVQAGGSLSLSCAASGRIFYGYAMGWYRLAPGKERELVAAIRTSGGSTYYADSVKGRFTISRDNAKNTVYLQMNSLKPEDTAVYYCNAGIVPRNRYYTPYNYWGQGTQVTVSS | low polyreactivity
QVQLVESGGGLVQAGGSLRLSCAASGRLFSYYAMGWYRPAPGKERELVAGISYRGGSTYYADSVKGRFTISRDNAKNTVYLQMNSLKPEDTAVYYCAARPYSYGQRSLRGYWGQGTQVTVSS | high polyreactivity
QVQLVESGGGLVQAGGSLRLSCAASGSIFSWYAMGWYRQAPGKERELVAAITWTGGSTYYADSVKGRFTISRDNAKNTVYLQMNSLKPEDTAVYYCAARRVVYRYYWYSAYDYWGQGTQVTVSS | high polyreactivity
QVQLVEPGGGLVQAGGSLRLSCAASGSIFAYYVMGWYRQAPGKERELVAGISFSGGTTYYADSVNGRFTISRDNAKNTVYLQMNSLKPEDTAVYYCNADPDHREFDYWGQGTQVTVSS | low polyreactivity
QVQLVESGGGLVQAGGSLRLSCAASGSIFAAYTMGWYRQAPGKERELVAAISVSTVSTYYADSVKGRFTISRDNAKNTVYLHMNSLKPEDTAVYYCNADATDSYPEKDDHDSWGQGTQVTVSS | low polyreactivity

Sequence | polyreactivity (PSR sort gate)
QVQLVESGGGLVQAGGSLRLSCAASGSTSQVNDMGWYRQAPGKERELVAAISSTGDRTYYADSVKGRFTISRDNAKNTVYLQMNSLKPEDTAVYYCNADLTSYYEEDERNDDDYWGQGTQVTVSS | low polyreactivity
QVQLVESGGGLVQAGGSLRLSCAASGRTFASYTMGWYRQAPGKERELVAAITRGGSTNYADSVKGRFTISRDNAKNTVYLQMNSLKPEDTAVYYCAARFSRSFGYNYWGQGTQVTVSS | high polyreactivity
QVQLVESGGGLVQAGGSLRLSCAASGSIFYSNAMGWYRQAPGKERELVAAITRRGGSTYYADSVKGRFTISRDNAKNTVYLQMNSLKPEDTAVYYCAARYYRRFAHYGEYGYWGQGTQVTVSS | high polyreactivity
QVQLVESGGRLVQAGGSLRLSCAASGITFGVYAMGWYRQAPGKERELVAAISRRGAATYYADSVKGRFTISRDNAKNTVYLQMNSLKPEDTAVYYCAAYLARRQYDYWGQGTHVTVSS | high polyreactivity
QVQLVESAGGLVQAGGSLRLSCAASGRTITFNTMGLYRQAPGKERELVAGIDRGGSTNYADSVKGRFTISRDNAKNTVYLQMNSLKPEDTAVYYCAADPPGYVYGKRYYWGQGTQVTVSS | high polyreactivity
QVQLVESGGGLVQAGGSLRLSCAASGGTFTAYAMGWYRQAPGKERELVAAISASGDSTYYADSVKGRFTISRDNAKNTVYLQMNSLKPEDTAVYYCNADWYRTGRRGSDYWGQGTQVTVSS | low polyreactivity
QVQLVESGGGLVQSGGSLRLSCAASGRTFRYYAMGWYRQAPGKERELVAAISSSGDRTYYADSVKGRFTISRDNAKNTVYLQMNSLKPEDTAVYFCAADRGARGDYWGQGTQVTVSS | high polyreactivity
QVQLVESGGGLVQAGGSLRLSCAASGSIFVTYDMGWYRQAPGKERELVAGISGSGSTYYADSVKGRFTISRDNAKNTVYLQMNSLKPEDTAGYYCAAVWSRFLISYSTGWWFEYWGQGTQVTVSS | low polyreactivity
QVQLVESGGGLVQAGGSLRLSCAASGSIFTFNTMGWYRQAPGKERELVATISSGGRTYYADSVKGRFTISRDNAKNTVYLQMNSLKPEDTAVYYCNKGYYGYTYVEYNYWGQGTQVTVSS | low polyreactivity
QVQLVESGGGLVQAGGSLRLSCAASGFTFKFNTMGWYRQAPGKERELVAAISWRGGDTSYADSVKGRFTISRDNAKNTVYLQMNSLKPEDTAVYYCAASPRYPYWYDYWGQGTQVTVSS | low polyreactivity
QVQLVESGGGLVQAGGSLRLSCAASGFTFYYYAMGWYRQAPGKERELVAVITSGGNTYYADSVKGRFTISRDNAKNNVYLQMNSLKPEDTAVYYCAKDVSDPFYDPFEYWGQGTQVTVSS | low polyreactivity
QVQLVESGGGLVQAGGSLRLSCAASGRTFHIYAMGWYRQAPGKERELVAAIRGRSGSTYYADSVKGRFTISRDNAKNTVYLQMNSLKPEDTAVYYCAVGRYPYGSARYRFDYWGQGTQVTVSS | high polyreactivity
QVQLVESGGGLVQAGGSLRLSCGASGSTFYGYAMGWYRQAPGTEREVVAAISSGGSTYYADSVKGRFTISRDNAKNTVYLQMNSLKPEDTAVYYCDAVGYFWITNHKDYYWGQGTQVTVSS | high polyreactivity
QVQLVESGGGLVQAGGSLRLSCAASGSTFWFNAMGWYRQAPGKERELVAAISGRGGNTYYADSVKGRFTISRVNAKNTVYLQMYSLKPEDTAVYYCNAVYLYAYRVRYYYGRYDYWGQGTQVTVSS | high polyreactivity
QVQLVESGGRLHQAGGSLRLICAASGSIIATYAMGWYRPAHGKERELVAAITSSDGSTNYADSVKGRFTISRDNAKNTVYLQMNCLTPEDTAVYYCAKDVWRHYLNLYDYWGQGTQVTVSS | low polyreactivity
QVQLVESGGGLVQAGGSLRLSCAASGSTFWAYALGWYRHAPGKERELVAAITTGGGRTFYADSVMGRFTISRDNGKNTVYLQLNSLIPEDTAVYYCGAVSQSYRMYYWGQGTQVTVSS | low polyreactivity
QVQLVESGGGLVQAGGSLRLSCAASGSTFVPNTMGWYRQAPGKERELVAAITYSGGSTYYADSVKGRFTISRDNAKNTVYLQMNSLKPEDTAVYYCAAEGTTWYYDMDYWGQGTQVTVSS | low polyreactivity
QVQLVESGGGLVQAGGRLRLSCAASGRTFGWYAMGWYRQAPGKERELVASITQRGGRTYYADSVKGRFTISRDNAKNTVYLQMNSLKPEDTAVYYCAAKTSPGMYYWGQGTQVTVSS | high polyreactivity
QVQLVESGGGLVQAGGSLRLSCAASGSTFGENAMGWYRQAPGKERELVAAISSGGSTNYADSVNGRFTISRDNAQNTVYLQMNSLQPEDTAVYYCNRYPVRDTGGYWGQGTQVTVSS | low polyreactivity
QVQLVESGGGLVQAGGSLRLSCAASGSIFASYAMGRYRQAPGKERELVAAISRSGGSTYYADSVKGRFTISRDNAKNTVYLQMNSLKPEDTAVYYCATGKIREDDYWGQGTQVTVSS | high polyreactivity
QVQLVESGGGLVQAGGSLRLSCAASGRIFRVYAMGWSRQAPGKERELVASITRTGGGTYYADSVKGRFTNSRDNAKNTVYLQMNRLKPEDPAVYYCAADAFIPGYQLHYHWGQGTQVTVSS | low polyreactivity
